Measurements: patent US9957535B2, “Methods, reagents and cells for biosynthesizing compounds” (INVISTA North America S.á r.l., priority 2014, dated 2018)

Key:
Type in all cases: biochemical
[1] = ω-transaminase enzyme activity assay, reverse direction (5-aminopentanoate to glutarate semialdehyde), L-alanine formation from pyruvate by RP-HPLC; settings: cell free extract, 10 mM 5-aminopentanoate, 10 mM pyruvate, pH 7.5, 25° C., 4 h, against empty vector control (FIG. 18)
Experimental: (§1) A nucleotide sequence encoding an N-terminal His-tag was added to the genes from Chromobacterium violaceum and Rhodobacter sphaeroides encoding the ω-transaminases of SEQ ID NOs: 8 and 10 respectively (see FIG. 10) such that N-terminal HIS tagged ω-transaminases could be produced. Each of the resulting modified genes was cloned into a pET21a expression vector under control of the T7 promoter and each expression vector was transformed into a BL21[DE3] E. coli host. The resulting recombinant E. coli strains were cultivated at 37° C. in a 250 mL shake flask culture containing 50 mL LB media and antibiotic selection pressure, with shaking at 230 rpm. Each culture was induced overnight at 16° C. using 1 mM IPTG.
(§2) The pellet from each induced shake flask culture was harvested via centrifugation. Each pellet was resuspended and lysed via sonication. The cell debris was separated from the supernatant via centrifugation and the cell free extract was used immediately in enzyme activity assays.
Enzyme activity assays in the reverse direction (i.e., 5-aminopentanoate to glutarate semialdehyde) were performed in a buffer composed of a final concentration of 50 mM HEPES buffer (pH=7.5), 10 mM 5-aminopentanoate, 10 mM pyruvate and 100 μM pyridoxyl 5′ phosphate. […] The formation of L-alanine from pyruvate was quantified via RP-HPLC.

[2] = ω-transaminase enzyme activity assay, forward direction (glutarate semialdehyde to 5-aminopentanoate), pyruvate formation by RP-HPLC; settings: for ω-transaminase acceptance of glutarate semialdehyde, synthesizing 5-aminopentanoate, concluded from reversibility: concluded from confirmed reversibility of the ω-transaminase activity
Experimental: as §1, §2
Enzyme activity in the forward direction (i.e., glutarate semialdehyde to 5-aminopentanoate) was confirmed for the transaminase of SEQ ID NO 10. Enzyme activity assays were performed in a buffer composed of a final concentration of 50 mM HEPES buffer (pH=7.5), 10 mM glutarate semialdehyde, 10 mM L-alanine and 100 μM pyridoxyl 5′ phosphate. Each enzyme activity assay reaction was initiated by adding a cell free extract of the ω-transaminase gene product or the empty vector control to the assay buffer containing the glutarate semialdehyde and incubated at 25° C. for 4 h, with shaking at 250 rpm. The formation of pyruvate was quantified via RP-HPLC.

[3] = ω-transaminase enzyme activity assay (N5-acetyl-1,5-diaminopentane to N5-acetyl-5-aminopentanal), L-alanine formation by RP-HPLC; settings: for ω-transaminase activity converting N5-acetyl-1,5-diaminopentane to N5-acetyl-5-aminopentanal (substrate acceptance): cell free extract, 10 mM N5-acetyl-1,5-diaminopentane, 10 mM pyruvate, pH 7.5, 25° C., 4 h, against empty vector control (FIG. 15); for ω-transaminase acceptance of N5-acetyl-5-aminopentanal forming N5-acetyl-1,5-diaminopentane, concluded from reversibility: concluded from reversibility of the ω-transaminase activity (Example 1)
Experimental: The activity of the N-terminal His-tagged ω-transaminases of SEQ ID NOs: 8, 10-13 (see Example 3, and FIG. 10) for converting N5-acetyl-1,5-diaminopentane to N5-acetyl-5-aminopentanal was assayed using a buffer composed of a final concentration of 50 mM HEPES buffer (pH=7.5), 10 mM N5-acetyl-1,5-diaminopentane, 10 mM pyruvate and 100 μM pyridoxyl 5′ phosphate. Each enzyme activity assay reaction was initiated by adding a cell free extract of the ω-transaminase or the empty vector control to the assay buffer containing the N5-acetyl-1,5-diaminopentane then incubated at 25° C. for 4 h, with shaking at 250 rpm. The formation of L-alanine was quantified via RP-HPLC.

[4] = carboxylate reductase enzyme activity assay (glutarate semialdehyde to pentanedial), NADPH consumption at 340 nm; settings: purified enzyme enhanced by gene product of sfp, 2 mM glutarate semialdehyde, 1 mM ATP, 1 mM NADPH, pH 7.5, room temperature, 20 min, against empty vector control (FIG. 16)
Experimental: The N-terminal His-tagged carboxylate reductase of SEQ ID NO 7 (see Example 3 and FIG. 10) was assayed using glutarate semialdehyde as substrate. The enzyme activity assay was performed in triplicate in a buffer composed of a final concentration of 50 mM HEPES buffer (pH=7.5), 2 mM glutarate semialdehyde, 10 mM MgCl2, 1 mM ATP and 1 mM NADPH. The enzyme activity assay reaction was initiated by adding purified carboxylate reductase and phosphopantetheine transferase or the empty vector control to the assay buffer containing the glutarate semialdehyde and then incubated at room temperature for 20 min. The consumption of NADPH was monitored by absorbance at 340 nm.

ω-transaminase activity converting 5-aminopentanoate to glutarate semialdehyde (substrate acceptance) [1] | Molecule | ω-transaminase acceptance of glutarate semialdehyde, synthesizing 5-aminopentanoate, concluded from reversibility [2] | ω-transaminase activity converting N5-acetyl-1,5-diaminopentane to N5-acetyl-5-aminopentanal (substrate acceptance) [3] | ω-transaminase acceptance of N5-acetyl-5-aminopentanal forming N5-acetyl-1,5-diaminopentane, concluded from reversibility [3] | carboxylate reductase activity converting glutarate semialdehyde to pentanedial (substrate acceptance) [4] | ω-transaminase activity converting glutarate semialdehyde to 5-aminopentanoate (substrate acceptance) ([2]; cell free extract, 10 mM glutarate semialdehyde, 10 mM L-alanine, pH 7.5, 25° C., 4 h, against empty vector control (FIG. 19))
accepted 5-aminopentanote as substrate | SEQ ID NO 8: Chromobacterium violaceum ω-transaminase (Genbank Accession No. AAQ59697.1), N-terminal HIS tagged (protein, listed as Chromobacterium violaceum, N-terminal His tag) MQKQRTTSQWRELDAAHHLHPFTDTASLNQAGARVMTRGEGVYLWDSEGNKIIDGMAGLWCVNVGYGRKDFAEAARRQMEELPFYNTFFKTTHPAVVELSSLLAEVTPAGFDRVFYTNSGSESVDTMIRMVRRYWDVQGKPEKKTLIGRWNGYHGSTIGGASLGGMKYMHEQGDLPIPGMAHIEQPWWYKHGKDMTPDEFGVVAARWLEEKILEIGADKVAAFVGEPIQGAGGVIVPPATYWPEIERICRKYDVLLVADEVICGFGRTGEWFGHQHFGFQPDLFTAAKGLSSGYLPIGAVFVGKRVAEGLIAGGDFNHGFTYSGHPVCAAVAHANVAALRDEGIVQRVKDDIGPYMQKRWRETFSRFEHVDDVRGVGMVQAFTLVKNKAKRELFPDFGEIGTLCRDIFFRNNLIMRACGDHIVSAPPLVMTRAEVDEMLAVAERCLEEFEQTLKARGLA | accepted glutarate semialdehyde as substrate and synthesized 5-aminopentanoate | accepted N5-acetyl-1,5-diaminopentane as substrate | accept N5-acetyl-5-aminopentanal as substrate forming N5-acetyl-1,5-diaminopentane |  | 
 | SEQ ID NO 7: Segniliparus rotundus carboxylate reductase (Genbank Accession No. ADG98140.1), N-terminal HIS tagged (protein, listed as Segniliparus rotundus, N-terminal His tag) MTQSHTQGPQASAAHSRLARRAAELLATDPQAAATLPDPEVVRQATRPGLRLAERVDAILSGYADRPALGQRSFQTVKDPITGRSSVELLPTFDTITYRELRERATAIASDLAHHPQAPAKPGDFLASIGFISVDYVAIDIAGVFAGLTAVPLQTGATLATLTAITAETAPTLFAASIEHLPTAVDAVLATPSVRRLLVFDYRAGSDEDREAVEAAKRKIADAGSSVLVDVLDEVIARGKSAPKAPLPPATDAGDDSLSLLIYTSGSTGTPKGAMYPERNVAHFWGGVWAAAFDEDAAPPVPAINITFLPLSHVASRLSLMPTLARGGLMHFVAKSDLSTLFEDLKLARPTNLFLVPRVVEMLYQHYQSELDRRGVQDGTREAEAVKDDLRTGLLGGRILTAGFGSAPLSAELAGFIESLLQIHLVDGYGSTEAGPVWRDGYLVKPPVTDYKLIDVPELGYFSTDSPHPRGELAIKTQTILPGYYKRPETTAEVFDEDGFYLTGDVVAQIGPEQFAYVDRRKNVLKLSQGEFVTLAKLEAAYSSSPLVRQLFVYGSSERSYLLAVIVPTPDALKKFGVGEAAKAALGESLQKIARDEGLQSYEVPRDFIIETDPFTVENGLLSDARKSLRPKLKEHYGERLEAMYKELADGQANELRDIRRGVQQRPTLETVRRAAAAMLGASAAEIKPDAHFTDLGGDSLSALTFSNFLHDLFEVDVPVGVIVSAANTLGSVAEHIDAQLAGGRARPTFATVHGKGSTTIKASDLTLDKFIDEQTLEAAKHLPKPADPPRTVLLTGANGWLGRFLALEWLERLAPAGGKLITIVRGKDAAQAKARLDAAYESGDPKLAGHYQDLAATTLEVLAGDFSEPRLGLDEATWNRLADEVDFISHPGALVNHVLPYNQLFGPNVAGVAEIIKLAITTRIKPVTYLSTVAVAAGVEPSALDEDGDIRTVSAERSVDEGYANGYGNSKWGGEVLLREAHDRTGLPVRVFRSDMILAHQKYTGQVNATDQFTRLVQSLLATGLAPKSFYELDAQGNRQRAHYDGIPVDFTAESITTLGGDGLEGYRSYNVFNPHRDGVGLDEFVDWLIEAGHPITRIDDYDQWLSRFETSLRGLPESKRQASVLPLLHAFARPGPAVDGSPFRNTVFRTDVQKAKIGAEHDIPHLGKALVLKYADDIKQLGLL |  |  |  | accepted glutarate semialdehyde as substrate | 
 | SEQ ID NO 10: Pseudomonas syringae ω-transaminase (Genbank Accession No. AAY39893.1), N-terminal HIS tagged; b286 says Rhodobacter sphaeroides (protein, listed as Pseudomonas syringae, N-terminal His tag, b286 says Rhodobacter sphaeroides) MSANNPQTLEWQALSSEHHLAPFSDYKQLKEKGPRIITRAEGVYLWDSEGNKILDGMSGLWCVAIGYGREELADAASKQMRELPYYNLFFQTAHPPVLELAKAISDIAPEGMNHVFFTGSGSEGNDTMLRMVRHYWALKGQPNKKTIISRVNGYHGSTVAGASLGGMTYMHEQGDLPIPGVVHIPQPYWFGEGGDMTPDEFGIWAAEQLEKKILELGVENVGAFIAEPIQGAGGVIVPPDSYWPKIKEILSRYDILFAADEVICGFGRTSEWFGSDFYGLRPDMMTIAKGLTSGYVPMGGLIVRDEIVAVLNEGGDFNHGFTYSGHPVAAAVALENIRILREEKIVERVRSETAPYLQKRLRELSDHPLVGEVRGVGLLGAIELVKDKTTRERYTDKGAGMICRTFCFDNGLIMRAVGDTMIIAPPLVISFAQIDELVEKARTCLDLTLAVLQG | accepted glutarate semialdehyde as substrate and synthesized 5-aminopentanoate | accepted N5-acetyl-1,5-diaminopentane as substrate | accept N5-acetyl-5-aminopentanal as substrate forming N5-acetyl-1,5-diaminopentane |  | accepted glutarate semialdehyde as substrate
